# Starred links: 1 amine or outer side, 2 acyl side, 3 side chain; linkers in the order of their positions; H or OH if unused. Non-standard residues stand in square brackets, D forms with d. No end group written: not given here. hSer(OMe) = COCC[C@H](N[*:1])C(=O)[*:2]; 1Nal = N[C@@H](Cc1cccc2ccccc12)C(=O)O; 2Nal = N[C@@H](Cc1ccc2ccccc2c1)C(=O)O; β3hI = CC[C@H](C)[C@H](N)CC(=O)O; β3hE = N[C@@H](CCC(=O)O)CC(=O)O; Nle = CCCC[C@H](N)C(=O)O; β3hA = C[C@H](N)CC(=O)O; Aib = CC(C)(N)C(=O)O; βAla = NCCC(=O)O
# How the values were obtained:
# [1] = target: human parathyroid hormone receptor 1 (human, UniProt Q03431); experiment: cell-based or functional assay
# [2] = target: human parathyroid hormone receptor 2 (human, UniProt P49190); experiment: cell-based or functional assay
Binder,"hPTHR-1 EC50 (nM), CRE-luciferase reporter gene assay [1]","hPTHR-2 EC50 (nM), luciferase reporter gene assay [2]"
"SVSEIQL[Nle]HELGKHLNS[β3hI]ERVE[1Nal]LRKLLQDVHNF-NH2 [[Nle^8, Glu^10, β-hIle^18, 1-Nal^23, Leu^27] hPTH (1-34)-NH2]",0.13 nM,3 nM
"SVSEIQL[Nle]HNLGKHLN[βAla][hSer(OMe)]ERVE[1Nal]LRKLLQDVHNF-NH2 [[Nle^8, β-Ala^17, hSer(OMe)^18, 1-Nal^23, Leu^27] hPTH (1-34)-NH2]",0.13 nM,93 nM
"SVSEIQL[Nle]HNLGKHLES[β3hI]ERVE[1Nal]LRKLLQDVHNF-NH2 [[Nle^8, Glu^16, β-hIle^18, 1-Nal^23, Leu^27] hPTH (1-34)-NH2]",0.16 nM,37 nM
"SVSEIQL[Nle]HNLGKHLNS[Nle][β3hE]RVE[1Nal]LRKLLQDVHNF-NH2 (N-terminus assumed; SMILES CCCC[C@H](NC(=O)[C@H](CO)NC(=O)[C@H](CC(N)=O)NC(=O)[C@H](CC(C)C)NC(=O)[C@H](Cc1c[nH]cn1)NC(=O)[C@H](CCCCN)NC(=O)CNC(=O)[C@H](CC(C)C)NC(=O)[C@H](CC(N)=O)NC(=O)[C@H](Cc1c[nH]cn1)NC(=O)[C@H](CCCC)NC(=O)[C@H](CC(C)C)NC(=O)[C@H](CCC(N)=O)NC(=O)[C@@H](NC(=O)[C@H](CCC(=O)O)NC(=O)[C@H](CO)NC(=O)[C@@H](NC(=O)[C@@H](N)CO)C(C)C)[C@@H](C)CC)C(=O)N[C@@H](CCC(=O)O)CC(=O)N[C@@H](CCCNC(=N)N)C(=O)N[C@H](C(=O)N[C@@H](CCC(=O)O)C(=O)N[C@@H](Cc1cccc2ccccc12)C(=O)N[C@@H](CC(C)C)C(=O)N[C@@H](CCCNC(=N)N)C(=O)N[C@@H](CCCCN)C(=O)N[C@@H](CC(C)C)C(=O)N[C@@H](CC(C)C)C(=O)N[C@@H](CCC(N)=O)C(=O)N[C@@H](CC(=O)O)C(=O)N[C@H](C(=O)N[C@@H](Cc1c[nH]cn1)C(=O)N[C@@H](CC(N)=O)C(=O)N[C@@H](Cc1ccccc1)C(N)=O)C(C)C)C(C)C) [[Nle^8,18, β-hGlu^19, 1-Nal^23, Leu^27] hPTH (1-34)-NH2]",0.32 nM,29 nM
"SVSEIQL[Nle]HNLGKHLN[βAla][Nle]ERVE[1Nal]LRKLLQDVHNF-NH2 [[Nle^8,18, β-Ala^17, 1-Nal^23, Leu^27] hPTH (1-34)-NH2]",0.12 nM,47 nM
"SVSEIQL[Nle]HNLGKHLSS[β3hI]ERVE[1Nal]LRKLLQDVHNF-NH2 [[Nle^8, Ser^16, β-hIle^18, 1-Nal^23, Leu^27] hPTH (1-34)-NH2]",0.19 nM,20 nM
"SVSEIQL[Nle]HNLGKHLNS[Nle][βAla]RVE[1Nal]LRKLLQDVHNF-NH2 (N-terminus assumed; SMILES CCCC[C@H](NC(=O)[C@H](CO)NC(=O)[C@H](CC(N)=O)NC(=O)[C@H](CC(C)C)NC(=O)[C@H](Cc1c[nH]cn1)NC(=O)[C@H](CCCCN)NC(=O)CNC(=O)[C@H](CC(C)C)NC(=O)[C@H](CC(N)=O)NC(=O)[C@H](Cc1c[nH]cn1)NC(=O)[C@H](CCCC)NC(=O)[C@H](CC(C)C)NC(=O)[C@H](CCC(N)=O)NC(=O)[C@@H](NC(=O)[C@H](CCC(=O)O)NC(=O)[C@H](CO)NC(=O)[C@@H](NC(=O)[C@@H](N)CO)C(C)C)[C@@H](C)CC)C(=O)NCCC(=O)N[C@@H](CCCNC(=N)N)C(=O)N[C@H](C(=O)N[C@@H](CCC(=O)O)C(=O)N[C@@H](Cc1cccc2ccccc12)C(=O)N[C@@H](CC(C)C)C(=O)N[C@@H](CCCNC(=N)N)C(=O)N[C@@H](CCCCN)C(=O)N[C@@H](CC(C)C)C(=O)N[C@@H](CC(C)C)C(=O)N[C@@H](CCC(N)=O)C(=O)N[C@@H](CC(=O)O)C(=O)N[C@H](C(=O)N[C@@H](Cc1c[nH]cn1)C(=O)N[C@@H](CC(N)=O)C(=O)N[C@@H](Cc1ccccc1)C(N)=O)C(C)C)C(C)C) [[Nle^8,18, β-Ala^19, 1-Nal^23, Leu^27] hPTH-(1-34)-NH2]",0.26 nM,18 nM
"SVSEIQL[Nle]HNLGKHLNS[β3hA]ERVE[1Nal]LRKLLQDVHNF-NH2 [[Nle^8, β-hAla^18, 1-Nal^23, Leu^27] hPTH (1-34)-NH2]",0.22 nM,61 nM
"SVSEIQL[Nle]HNLGKHLNS[β3hI]ERVE[1Nal]LRKLLQDV-OH [[Nle^8, β-hIle^18, 1-Nal^23, Leu^27] hPTH (1-31)-OH]",0.09 nM,76 nM
"SVSEIQL[hSer(OMe)]HNLGKHLN[βAla][hSer(OMe)]ERVE[1Nal]LRKLLQDVHNF-NH2 [[hSer(OMe)^8,18, β-Ala^17, 1-Nal^23, Leu^27] hPTH(1-34)-NH2]",0.88 nM,> 270 nM
"SVSEIQL[Nle]HSLGKHLNS[β3hI]ERVE[1Nal]LRKLLQDVHNF-NH2 [[Nle^8, Ser^10, β-hIle^18, 1-Nal^23, Leu^27] hPTH (1-34)-NH2]",0.18 nM,17 nM
"AVSEIQL[Nle]HNLGKHLN[βAla][Nle]ERVE[1Nal]LRKLLQDVHNF-NH2 [[Ala^1, Nle^8,18, β-Ala^17, 1-Nal^23, Leu^27] hPTH (1-34)-NH2]",0.2 nM,89 nM
"SVSEIQL[Nle]HNLGKHLNS[β3hI]ERVE[1Nal]LRKLLQDVHNF-NH2 [[Nle^8, β-hIle^18, 1-Nal^23, Leu^27] hPTH (1-34)-NH2]",0.14 nM,32 nM
"[Aib]VSEIQL[Nle]HNLGKHLN[βAla][Nle]ERVE[1Nal]LRKLLQDVHNF-NH2 [[Aib^1, Nle^8,18, β-Ala^17, 1-Nal^23, Leu^27] hPTH (1-34)-NH2]",0.06 nM,31 nM
"SVSEIQL[Nle]HNLGKHLNS[β3hI]ERVE[1Nal]LRKKLQDVHNF-OH (N-terminus assumed; SMILES CCCC[C@H](NC(=O)[C@H](CC(C)C)NC(=O)[C@H](CCC(N)=O)NC(=O)[C@@H](NC(=O)[C@H](CCC(=O)O)NC(=O)[C@H](CO)NC(=O)[C@@H](NC(=O)[C@@H](N)CO)C(C)C)[C@@H](C)CC)C(=O)N[C@@H](Cc1c[nH]cn1)C(=O)N[C@@H](CC(N)=O)C(=O)N[C@@H](CC(C)C)C(=O)NCC(=O)N[C@@H](CCCCN)C(=O)N[C@@H](Cc1c[nH]cn1)C(=O)N[C@@H](CC(C)C)C(=O)N[C@@H](CC(N)=O)C(=O)N[C@@H](CO)C(=O)N[C@H](CC(=O)N[C@@H](CCC(=O)O)C(=O)N[C@@H](CCCNC(=N)N)C(=O)N[C@H](C(=O)N[C@@H](CCC(=O)O)C(=O)N[C@@H](Cc1cccc2ccccc12)C(=O)N[C@@H](CC(C)C)C(=O)N[C@@H](CCCNC(=N)N)C(=O)N[C@@H](CCCCN)C(=O)N[C@@H](CCCCN)C(=O)N[C@@H](CC(C)C)C(=O)N[C@@H](CCC(N)=O)C(=O)N[C@@H](CC(=O)O)C(=O)N[C@H](C(=O)N[C@@H](Cc1c[nH]cn1)C(=O)N[C@@H](CC(N)=O)C(=O)N[C@@H](Cc1ccccc1)C(=O)O)C(C)C)C(C)C)[C@@H](C)CC) [[Nle^8, β-hIle^18, 1-Nal^23] hPTH (1-34)-OH]",0.21 nM,26 nM
"SVSEIQL[Nle]HNLGKHLNS[β3hI]ERVE[1Nal]LRKLLQDVHNF-OH [[Nle^8, β-hIle^18, 1-Nal^23, Leu^27] hPTH (1-34)-OH]",0.14 nM,23 nM
"AVSEIQL[Nle]HNLGKHLN[βAla][Nle]ERVE[2Nal]LRKKLQDVHNF-NH2 (N-terminus assumed; SMILES CCCC[C@H](NC(=O)CCNC(=O)[C@H](CC(N)=O)NC(=O)[C@H](CC(C)C)NC(=O)[C@H](Cc1c[nH]cn1)NC(=O)[C@H](CCCCN)NC(=O)CNC(=O)[C@H](CC(C)C)NC(=O)[C@H](CC(N)=O)NC(=O)[C@H](Cc1c[nH]cn1)NC(=O)[C@H](CCCC)NC(=O)[C@H](CC(C)C)NC(=O)[C@H](CCC(N)=O)NC(=O)[C@@H](NC(=O)[C@H](CCC(=O)O)NC(=O)[C@H](CO)NC(=O)[C@@H](NC(=O)[C@H](C)N)C(C)C)[C@@H](C)CC)C(=O)N[C@@H](CCC(=O)O)C(=O)N[C@@H](CCCNC(=N)N)C(=O)N[C@H](C(=O)N[C@@H](CCC(=O)O)C(=O)N[C@@H](Cc1ccc2ccccc2c1)C(=O)N[C@@H](CC(C)C)C(=O)N[C@@H](CCCNC(=N)N)C(=O)N[C@@H](CCCCN)C(=O)N[C@@H](CCCCN)C(=O)N[C@@H](CC(C)C)C(=O)N[C@@H](CCC(N)=O)C(=O)N[C@@H](CC(=O)O)C(=O)N[C@H](C(=O)N[C@@H](Cc1c[nH]cn1)C(=O)N[C@@H](CC(N)=O)C(=O)N[C@@H](Cc1ccccc1)C(N)=O)C(C)C)C(C)C) [[Ala^1, Nle^8,18, β-Ala^17, 2-Nal^23] hPTH (1-34)-NH2]",0.22 nM,95 nM
"[Aib]VSEIQL[Nle]HNLGKHLN[βAla][Nle]ERVE[2Nal]LRKKLQDVHNF-NH2 (N-terminus assumed; SMILES CCCC[C@H](NC(=O)CCNC(=O)[C@H](CC(N)=O)NC(=O)[C@H](CC(C)C)NC(=O)[C@H](Cc1c[nH]cn1)NC(=O)[C@H](CCCCN)NC(=O)CNC(=O)[C@H](CC(C)C)NC(=O)[C@H](CC(N)=O)NC(=O)[C@H](Cc1c[nH]cn1)NC(=O)[C@H](CCCC)NC(=O)[C@H](CC(C)C)NC(=O)[C@H](CCC(N)=O)NC(=O)[C@@H](NC(=O)[C@H](CCC(=O)O)NC(=O)[C@H](CO)NC(=O)[C@@H](NC(=O)C(C)(C)N)C(C)C)[C@@H](C)CC)C(=O)N[C@@H](CCC(=O)O)C(=O)N[C@@H](CCCNC(=N)N)C(=O)N[C@H](C(=O)N[C@@H](CCC(=O)O)C(=O)N[C@@H](Cc1ccc2ccccc2c1)C(=O)N[C@@H](CC(C)C)C(=O)N[C@@H](CCCNC(=N)N)C(=O)N[C@@H](CCCCN)C(=O)N[C@@H](CCCCN)C(=O)N[C@@H](CC(C)C)C(=O)N[C@@H](CCC(N)=O)C(=O)N[C@@H](CC(=O)O)C(=O)N[C@H](C(=O)N[C@@H](Cc1c[nH]cn1)C(=O)N[C@@H](CC(N)=O)C(=O)N[C@@H](Cc1ccccc1)C(N)=O)C(C)C)C(C)C) [[Aib^1, Nle^8,18, β-Ala^17, 2-Nal^23] hPTH (1-34)-NH2]",0.22 nM,46 nM

# — patent US20110195900A1, “PEPTIDIC PTH RECEPTOR AGONISTS” (FERRING B.V., priority 2008, published 2011)
